T1: LAG3 Protein, Human, Recombinant (His Tag) (Sino Biological Catalog No. 16498-H08H) (human, UniProt P18627 23-450)
T1 construct: Bought protein; also called hLAG3-His; LAG3-His; not shown: His tag
T1 sequence (looked up): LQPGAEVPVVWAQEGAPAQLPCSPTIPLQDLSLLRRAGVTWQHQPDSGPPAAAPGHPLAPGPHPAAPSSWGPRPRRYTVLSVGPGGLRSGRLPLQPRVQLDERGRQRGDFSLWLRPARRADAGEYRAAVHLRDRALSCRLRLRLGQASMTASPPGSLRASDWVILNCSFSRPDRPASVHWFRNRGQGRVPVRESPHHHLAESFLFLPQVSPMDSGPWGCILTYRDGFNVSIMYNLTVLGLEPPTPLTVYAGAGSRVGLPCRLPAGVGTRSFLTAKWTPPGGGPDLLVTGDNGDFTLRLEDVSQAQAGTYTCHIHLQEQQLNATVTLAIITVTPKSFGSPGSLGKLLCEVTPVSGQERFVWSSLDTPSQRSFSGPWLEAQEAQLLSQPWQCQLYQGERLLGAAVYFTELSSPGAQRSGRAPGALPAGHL


Target: T1, LAG3 Protein, Human, Recombinant (His …)
Assay: ELISA, coated hLAG3-His
Procedure: Plates were coated with 100 µL per well of Coating Solution, and then covered, and incubated overnight (12-18 hours) at 2-8° C. The wells were aspirated and washed 1 time with >200 µL of Wash buffer per well, inverted and tapped on absorbent paper to remove excess liquid. The plates were blocked with 200 µL per well with Blocking buffer (1×PBS+4% milk) for 1 hour at room temperature, aspirated, inverted, and tapped on absorbent paper to remove excess liquid. Standards and sample dilutions were prepared in Blocking buffer. 100 µL of standards (in duplicate) and samples were pipetted into designated wells. After incubation for 1 hour at room temperature with gentle continual shaking (~500 rpm), the wells were aspirate and washed 3 times with >200 µL of Wash buffer per well, inverted and tapped on absorbent paper to remove excess liquid.
The primary antibody solution was diluted with Blocking buffer. See Table 14 for recommended primary antibody dilution. 100 µL of the primary antibody solution was added into each well and incubated for 2 hours at room temperature with gentle continual shaking (~500 rpm). The wells were aspirated and washed 3 times with >200 µL of Wash buffer per well, inverted and tapped on absorbent paper to remove excess liquid. The working solution of secondary antibody was made with Blocking buffer by diluting the secondary antibody by 2,500 times. 100 µL of secondary antibody working solution was added into each well and incubated for 30 minutes at room temperature. The wells were aspirated and washed 5 times with >200 µL of Wash buffer per well, inverted and tapped on absorbent paper to remove excess liquid. 100 µL of TMB substrate solution (Biopanda, TMB-S-004) was added to each well and incubated for 30 minutes at room temperature. 100 µL of Stop solution (Solarbio, C1058) was added to each well. Absorbance at 450 nm was measured within 30 minutes of adding Stop solution. Results were calculated using a log-log or 4-parameter curve fit.

| EC50 | OD450 at 0.061 nM | OD450 at 0.1829 nM | OD450 at 0.5487 nM | OD450 at 1.6461 nM | OD450 at 4.9383 nM | OD450 at 14.815 nM | OD450 at 44.445 nM | OD450 at 133.335 nM | Binder |
| --- | --- | --- | --- | --- | --- | --- | --- | --- | --- |
| 4.7 nM | 0.037 | 0.042 | 0.059 | 0.257 | 1.04 | 1.57 | 1.77 | 1.95 | sdAb No. 27 (VHH, Fc of the tested form not described; also called sdAb 27; not shown: Fc part implied by anti-human Fc capture and anti-human IgG Fc detection) VHH: QVQLVESGGGLVQPGGSLRLSCAASGFTLDYYAIGWFRQAPGKEREGVSCIRSSDGSTYYADSVKGRFTISSDNTKNTVYLQMNSLKPEDTAVYYCATDRYSDCRGPYENWGQGTQVTVSS |
| 3.45 nM | 0.037 | 0.042 | 0.06 | 0.233 | 0.643 | 0.85 | 0.882 | 1.02 | sdAb No. 25 (VHH, Fc of the tested form not described; also called sdAb 25; sdAb #25; not shown: Fc part implied by anti-human Fc capture and anti-human IgG Fc detection) VHH: QLQLVESGGGLVQAGGSLRLSCAASGSIESFSFMGWYRQAPGKQRELVAGFTGAASLSFSTYTDAVKGRFTISRDNAKNTVYLQMNSLKPEDTAVYFCNVDPWSQSWPGRYWGQGTQVTVSS |

Reference: patent publication US20230303690A1 (published 2023)
